Assay results: patent publication US20100015600A1

Target: CD66c receptor (human (patients' ileal enterocytes)) (UniProt P40199)
Assay: cell-based or functional assay

Sequence of UniProt P40199 (P40199 35-320): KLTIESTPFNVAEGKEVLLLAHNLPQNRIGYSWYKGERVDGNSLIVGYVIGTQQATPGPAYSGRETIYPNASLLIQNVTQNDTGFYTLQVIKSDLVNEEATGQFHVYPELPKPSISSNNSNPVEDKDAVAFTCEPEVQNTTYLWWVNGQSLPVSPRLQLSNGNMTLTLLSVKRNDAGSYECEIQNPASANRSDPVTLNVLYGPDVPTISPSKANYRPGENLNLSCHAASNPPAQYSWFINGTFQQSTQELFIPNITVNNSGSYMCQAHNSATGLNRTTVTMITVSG

Work on “type 1 pili (adhesin FimH) of the E. coli AIEC strain LF82” yielded an Adhesion to the enterocytes, no antibody (adhesion index), patient F (bacteria adhering per enterocyte) of 1.45, an Adhesion to the enterocytes, no antibody (adhesion index), patient G (bacteria adhering per enterocyte) of 1.15 and an Adhesion to the enterocytes, no antibody (adhesion index), patient H (bacteria adhering per enterocyte) of 1.02. For the same substance, the Adhesion to the enterocytes, no antibody (adhesion index), patient I (bacteria adhering per enterocyte) was 1.28.
